Reference: the DeepSol protein solubility set

assay: soluble on expression in E. coli; label from the status in PepcDB or PDB records

**Q.** For “MGSDKIHHHHHHMKLLLTSGGIQNDSQRRALVDLLGKPIEEAHALCIPTAVYGMKEGPYHAYLFITGTGSTPMCELGFQSVGVLELTALPILDESLWVPLVEQADVLLVNGGDPLFLNYWMKKSGLADRLPSLKAVYVGLSAGSMVLTPRIGHAFVEWTAPHTTTDETLGLVEFSIFPHLDHELLPENTLDEAVKWAADLTGPSYAIDDQTAIQVVDGVVKVISEGHWKRFD”, which “soluble on expression in E. coli” value is on record?
**A.** not soluble

**Q.** With “MGSDKIHHHHHHMKLLSVVKIWDRGDHNAFTDLIRFDGKLYCAFREGSAHVSPDGALRILVSEDDGSSWKEAALIKLDEGDLRDARLLVWLGELYLFGARAIAGEPLQSLMWRSSDGCRWQAAEHCADTGYWLWRVIADNNEQSVSRAPALYGVAYRPGPDGDVRLYRAAPQGPLKGTDFIPLVAALNSEGYVNETGLEITDGIFTCLLRRDPVWDDRRNGLLGKAKAPFMDWQWLELDCRIGGPVVFRWCNRLLAIVRLYDEKVRTSLVEICETTGHVAEHLSLPSGGDTSYAGVVMEHSVKGDELKVSYYSSHEGKTAIYFAAIRLE” as the sequence, how does the “soluble on expression in E. coli” value read?
**A.** not soluble

**Q.** With “MGSDKIHHHHHHMKLNHRQLEAFRAMIETGSVTEASKRIGVTQPAASRLISDLEYAIGYALFLREKKRLTPTPEAMALFEEVDRSYIGLGLIGDAARDIGANRRGALRIASLPAMALSFLPKVISKFCEDKPDISVDMQIHSSQRVIQCVASQQFDLGFAEIDSLHPAVKSQAFFESPMVAILPKHHPLCRKATLTPQDFSNENFIALGSNYTMRKRIDALFLANNITRKIQIETQLSMAVANLVASGAGVSIIEALTASSFRGLNLVEARPFLPEITYTYRVLSPAHRPISLLTASFINATRDALMKFDVSGHAL” as the sequence, how does the “soluble on expression in E. coli” value read?
**A.** not soluble

**Q.** With “MGSDKIHHHHHHMKLQDFLGKDEKWSFDAIAEDADLARQIQIVLIGLVLLEPPADGKFGPVSVIALKKFQELTKTEESGFLGAVTAKKLIETKIDDLPKPPLKLGNDIASKIVKYMIAKGYQVFTNPKEYNIVYIEGMNGDWTLNSDTPNQFNDRRIVIEVVNGIPKIVDHWEATTEPGKYYTYNPMNPKGAARIQFGQYKAWAVGTHGTAEPHEALVQVGDITVCRDFNQDFKRTGDKLDTGDNFYVNQHYGFDFPQNDIRLASAGCLVGRTREGHREFMAIVKQDRRYVANRKYTFYTTVIPGDDLLKTFPG” as the sequence, how does the “soluble on expression in E. coli” value read?
**A.** not soluble

**Q.** With “MGSDKIHHHHHHMKLQQLEYFMAVSKYASFTLASQKLHTSQPYLSTQLKELERELGASLILRDKKHCRLSPAGEVVAKRTEMIFALIKEAQEEINELVTQGSTTTIRIGTNLIDIDKAFGEVLLLFNQSYPYVSIDFKYYYDLETALETDLIDIGIGIFLDTSIPLEKELIYTESYLLCVNKNHPLAHADSVTIDEIRSLPFAAYSDQVYEKKVFKRWERKINWENRQIVIELPSLHLVLDMVQREKACSILPYSLTDELNRRNLVGIPLEDSPERAIYLVQNNHHGHCEAHRYLFEQLRYLF” as the sequence, how does the “soluble on expression in E. coli” value read?
**A.** not soluble

**Q.** For “MGSDKIHHHHHHMKLSLVISTSDAAFDALAFKGDLRKGMELAKRVGYQAVEIAVRDPSIVDWNEVKILSEELNLPICAIGTGQAYLADGLSLTHPNDEIRKKAIERVVKHTEVAGMFGALVIIGLVRGRREGRSYEETEELFIESMKRLLELTEHAKFVIEPLNRYETDFINTIDDALRILRKINSNRVGILADTFHMNIEEVNIPESLKRAGEKLYHFHVADSNRWAPGCGHFDFRSVFNTLKEIGYNRYVSVECLPLPGGMEEAAEIAFKTLKELIIKLT”, which “soluble on expression in E. coli” value is on record?
**A.** not soluble

**Q.** Which “soluble on expression in E. coli” value does the source give for “MGSDKIHHHHHHMKNLLDLSYEELVTEITNLGLERYRADQILDWVFDKKVNNFDEMTNLSKKHRALLKEHFSISFLKLLDKKVSRIDGTTKFLWELEDGNTIESVMLFHPDRITACISTQVGCPVKCIFCATGMSGFVRNLTTGEIVAQILSMEKEEKKKIGNVVYMGMGEPLLNYENTIKSIRILNHKKMGNIGIRRITISTVGIPDRIIQLAEEGLDVKLALSLHAPTNFKRDQLVPLNKKYSIEEILNAVKIYQRKTGNRVTIEYVLIRGINDEISDAKKLAEILRNMKVFVNLIPVNPTVEGLRRPSRERLLTFKRILLENGIEAEIRREKGTDIEAACGQLRLKRIKSRS” here?
**A.** not soluble

**Q.** Which “soluble on expression in E. coli” value does the source give for “MGSDKIHHHHHHMKNLLVVLLSLVSVLSFSVSLNDVLQTALASSTDYQIAQISLESATMDYEKAKLEATNKRSELSAELSYYNNLQSYRNSLKSAYQDVLGRIFNLLTADLSYEIAQLNFENAQEDYKTSQELFKKNLISENDLKDSELTLEEASNNLLSAQKDLEEAQKDYEEIFSVEVSEIELPLIDYQNLVGEDEYLDNLSSVKIAELNMKIAEYDLNNLSASASKYEQKKAELNYKKSKMNYDEALKEAKDSYKSTLDSLEIAFLNLKVLKEKIELNENILKDYQERYEKGLISKKELNTQKINLLNIKKNYLNSLRSYYISIVNLLIDAGKEVSF” here?
**A.** not soluble

**Q.** Which “soluble on expression in E. coli” value does the source give for “MGSDKIHHHHHHMKNVIKFYEKGSIEILYGKSSHSFPLHSHECFCVGAITKGSALFTINNTKCLLEESMVFIIPPNTGISITANSQYDYITICFKNELKKQVEHILFNKFFLKIKSNDEIFNLCDIFKENNNEKQLLNSILILINSTIATNSLVMETSTNNTVLLICEYIKQTAAKNFSLDTLAESFYLSKYHLIRMFKKEMGVTPYQYYIQAKMGIIRRQIFNGKSETDLAINLNLSDSSHLCKIFKRQMGISIQAYKKNLIRK” here?
**A.** not soluble

**Q.** Which “soluble on expression in E. coli” value does the source give for “MGSDKIHHHHHHMKPTLFVLAAGMGSRYGSLKQLDGIGPGGDTIMDYSVYDAIRAGFGRLVFVIRHSFEKEFREKILTKYEGRIPVELVFQELDRLPEGFSCPEGREKPWGTNHAVLMGRDAIREPFAVINADDFYGRNGFEVLARKLMTLEGKQGEYCMVGYRVGNTLSESGGVSRGVCQVDEKHLLTGVVERTGIERTDGTISFRDETGKICTLAEDAPVSMNMWGFTPDYFDYSEELFINFLNAHGQEPKSEFFIPFVVNDLIRSGRASVEVLDTTARWFGVTYSDDRPGVVAKLRELTEAGEYPTKLF” here?
**A.** not soluble

**Q.** For “MGSDKIHHHHHHMKPYIVAHMMSSLDGRSLTDGWHLDYASDLYETTAATFEADGWICGRVTMQEISHGKDYPAGLASGAVPRTDHFVERNADQYAISIDPQGRVAWKSNTALKSHVIEVLTEQVADDYLAYLQSIGVSYVFGGKTGIDLDKVVQTLARELGVKKLIVEGGSHVSGAFVNAGLVDEVSVLILPLVDGRSEHPSSFEVAMEKWQAPAYLKLTSVEKTDHDAVWLRYTKA”, which “soluble on expression in E. coli” value is on record?
**A.** not soluble

**Q.** Which “soluble on expression in E. coli” value does the source give for “MGSDKIHHHHHHMKQKLRLIQRRTVHYLLVVTYWISKFFPVQTKKVVFATYRSDKLVDNFRAVYDELESRELGFQYVFLLKRFPQNLIGQIKYVFHMMRATYELATARYFIIDDYYYPVYVSKLRKGTEVIQLWHACGAFKKFGYSVLDKSYSPDDDYLKMVAIHRNYSKVYVSGEACIGPFAEAFGMDSTRIHPLGVPRTDQLLNRERQVQIEHKLYDRYPEWRSKKLILLAPTFRGNGQTTAHYDQELDFQQFREQLGPDHILLLRMHPFVLNRPVVPAEFSNQIIDMTDYPDINDLMQVADILVTDYSSVIFEFALLKKPIILLVNDLNAYREERDFYFPYESFVPGPIVSSFNDVISWIKAGQFEPEQIEDFAARFFTYQDGLATKRIVNHILTGALPDAPMRPEERKTV” here?
**A.** not soluble

**Q.** For “MGSDKIHHHHHHMKQLVELERSSLGPQEAPVRLALSPDAGSPRDPQWQGPSGGFAINGKFASQRITGVQRVGYELAVAFQHLFPHGTDLPLLVPPNARTDVVFPNAKVIGRRLKGSLWEQFSLPFATGRRTLLSLCNMGPLFVRRQVVMVHDVAIYDLPQNYSWKYRLWYRVALSLLKRNVRHIVTVSEFSKKRIVERLGIDASRISVVLNGVDHFEKISPDTAILSRLNLQKDGYVLAVGNLSVGKNLPRILTAVERLNDSHDWKFVVVGGCDLRVFNSGAKVGFDLSKNIVPAGFVSDGELRALYENAACFLFPSLYEGFGLPPLEAMSCGCPVIVSREASLPEVCGDAALYCDAYSVDDIVDKVTQMMADPAARETWRQRGREHARGFRWERSARQLLGILERELAGEVAPPVHAQSAQSDQSAPSRV”, which “soluble on expression in E. coli” value is on record?
**A.** not soluble

**Q.** For “MGSDKIHHHHHHMKSNGHATRLRTTPSLGGQSHDTRARMIEAAIEVFGSVGYDGATTRQLAERAGVNQAAIPYHFGGKRELYVAAAQAIADYMRSRIEPLIDELRTASVDPVGHIDAVVMRFFQFIAGDEEPEAWTVFFVRCERDADDAFRIIYYQSVARFQAALIAEVAAATGRSPDDEDLKVRVAVVLGAISNFRTLRNVMLSSLGWDTFDAERKLTVETAVRRLALAELLGIHADAPSDVHPPLGSASGAQPSPTARP”, which “soluble on expression in E. coli” value is on record?
**A.** not soluble

**Q.** For “MGSDKIHHHHHHMKSYKNYIFDFYGTLVDIRTDENKLEVWNQLTQIYNAFGCSYRPRQLKNAYHRFVEEAERFLAETVSYQYVEIDLETLFIRLLTDAPNENQSTNKPTDLETFGQVVATIFRVLSREKLEAYENTLTSLQTLAARAARLFILSNAQRIFTQAEIEQTGCADLMEKIYISSDFKMKKPEPAFLQLVLEENNLDVKETVMVGNDLTSDIAIAHELGMDSILLNTFPYSQEEIDSYRRLGWNFEVVGDIAELL”, which “soluble on expression in E. coli” value is on record?
**A.** not soluble

**Q.** For “MGSDKIHHHHHHMKTKHILFGIFISSAVTSCNSIKGSGNVVTSIRPVQEFSGIISSGSFNMYLTQSAVQEVKIIADDNVLQYIETNVRDGILTVTFKDKVHIKNSTRLDIYVSGPVIEKINLEGSGNIQTTNRLHSNNLVLVLNGSGKMVAEDACETAIVQLNGSGNITLTGKAKNQTASVSGSGNVNASGFTTENTTASLSGSGSIGLYATESLHASLSGSGSIRYSGNPASVKKEVSGSGMVESR”, which “soluble on expression in E. coli” value is on record?
**A.** not soluble

**Q.** For “MGSDKIHHHHHHMKTKPIDLYILSGFLGSGKSTLLKRLIEQEQARGNKIGVLMNELGEVSVDSSIVPKDTPLKEMLNGCICCTIQGELSAQLQSFIEEYELDVIFIEATGAAHPLEVVEACTHPVFAGQVRVRGVLTVVNARQWIEGKMSIKIKKLMEAQVTFADLIVVNKVDQVTDAQVEQLTTSIKDLNPKAINIPTTFSNLEPVHSERLHHAAAPSSRGSESKAHVHEHLHLRTMAVPIQHPVDRMELLSFLKGIQGQIYRVKGFIHLKESPGLFLFNYAYGDPMFERHRTDQAYAPVLVFIGDDLDHQAIEEGLQQLQQ”, which “soluble on expression in E. coli” value is on record?
**A.** not soluble

**Q.** With “MGSDKIHHHHHHMKTLVICSGGLDSVSLAHKVAAEHDLIGLISFDYGQRHRKELDFAARAATRLGVPHDLIDMRQIGAHLSGSALTDDVDVPDGHYAEDTMKITVVPNRNAIMLAIAFGIAAAKQADAVATAVHGGDHFIYPDCRPGFTQAFEAMQAQALDGYASVRLYTPFVHEPKSAIVTEGERHNTPFADTWSCYKGGEVHCGRCGTCVERREAFHLAGVADPTPYADPEFWRAAVEGR” as the sequence, how does the “soluble on expression in E. coli” value read?
**A.** not soluble

**Q.** Which “soluble on expression in E. coli” value does the source give for “MGSDKIHHHHHHMKVELDVSELAVGMYVVEITQPKNKFQLAEQGWITKQQVIDGFKRKGIEKLLVDSSKRRPQPSEPAKVNQATMDKQAAQLTKTPGLFKQRLSQAKQLFNESKAIQRRLFDDAQAGVPLTLEPVRRVTDQSIEAIFDNPDALACVINIRHKDQYLLEHSVAVSVLMTIFACYLKIDKEIVSELAIGAFLHDVGKIMIPPSILDKPGRLTTEEFEVMKTHANHSIRIIENTPNISPLSLEVARLHHEKLNGKGYPFGVSAEAISRFGRMIAICDIFDALTANRCYKAGYPQVKAFSILRALGENNELDAELVDHFIKCMGVYPVGSLVQLESNRLAIVESHNHQDPIRPKVKPFYSLNPNHFEISANIDLAAMRDDIIVKNVRADDFDLDMDEIIEFLSHEG” here?
**A.** not soluble

**Q.** For “MGSDKIHHHHHHMKVICITQARMGSSRLPGKVLKIIGTRPMLEYHVRRVAKSKLINHHIIATSNQENDLPIVEYCQQNNIDYYRGNETDVLGRFYETALSVHAEPDDIIIRLTGDCPLICPQLIDDAIKLQFSGESQQYTHVSLAYFPRGFDVEVFRMRSLSEAYFKALAPAQREHVTLYLYSKPDALIVPVTLHGNPSWSHFRLCVDEQDDFLLVEQLICRLGEQWLDAGPRQICELLEGNPQLVTINAHIHQRTAH”, which “soluble on expression in E. coli” value is on record?
**A.** not soluble
